Test results from patent publication US20240409617A1 (published 2024).
Residue numbers refer to the chain shown, from its start.

B1: Ab 18 (scFv, V domains shown)
VH: EVQLVQSGGGVVQPGRSLRVSCAASGFSFSRYGMHWVRQAPGKGLEWVAFIRHDGSKKYYADSVEGRFTISRDNSRNTVSLEMNSLRGEDTAVYYCAKDGRLEAALDDWGQGTLVTVSS
VL: NFMLTQPHSMSGSAGKTVTVSCIRSSGSIANNFVQWYQQRPGSAPTTVIYEDNQRPSGVPDRFSGSIDSSSNSASLTISGLKTEDEADYYCQSYDSSNLVFGGGTRLTVL
B2: Ab 16 (scFv, V domains shown)
VH: QVQLVQSGGGVVQPGRSLRLSCAASGFTFSNYGMHWVRQAPGKGLEWVALIWERGSKKDYADSVKGRFTVSRDNSKNTLYLQMNSLRPEDTAVYFCAREGISMTGAEYFQHWGQGTLVTVSS
VL: QSVLTQPPSVSGSPGQRVTMSCTGSSSNIGAGYDVHWYQQVPGAAPRLLIYGTNNRPSGVPDRFSGSKSGTSASLTITGLQAEDEADYYCQSYDNSLTDPYVFGTGTKVTVL
B3: Ab 37 (scFv, V domains shown)
VH: QVQLVQSGAEVKKPGASVKVSCKASGYTFTSYGISWVRQAPGQGLEWMGWISTYNGNTNYAQKLQGRVTMTTDTSTSTAYMEVRSLRSDDTAVYYCARDVFGHFDYWGQGTLVTVSS
VL: NFMLTQPHSVSESPGKTVLISCTRSSGNIATNYVQWYQQRPGSAPTTVIYEDNQRPSGVPDRFSGSIDSSSNSASLTISGLKTEDEADYYCKSYDDGNHVFGGGTKLTVL
B4: Ab 39 (scFv, V domains shown)
VH: QVTLKESGPTLVKPTQTLTLTCTLSGVSLDTIGMRVSWIRQPPGKALEWLARIDWDDDKFYSTALKTRLTISKDTSKNQVVFTMTSMDPVDTATYYCARSGLLYDLDVWGRGTLVTVSS
VL: QSVVTQPPSVSGAPGQRVTISCTGSDSDIGANFVQWYQQLPGTAPKLLIWRNTNRPSGVPDRFSASKSGTSASLAITGLQAEDEADYFCQSYDSSLSAYVFGGGTKVTVL
B5: Ab 32 (scFv, V domains shown)
VH: QVQLVQSGAEVKKPGESLKISCKGSGYSFTSYWIGWVRQMPGKGLEWMGIIYPGDSDTRYSPSFQGQVTISADKSISTAYLQWSSLKASDTAMYYCARGWQWHDYWGQGTLVTVSS
VL: QTVVTQEPAVSVALGQTVRITCQGDSLRSYYASWYQQKPGQAPVLVVYDKDKRPSGIPDRFSGSTSGNTASLTITGAQAEDEADYYCNSRDRSDNHVVFGGGTKLTVL
B6: Ab 38 (scFv, V domains shown)
VH: QVTLKESGPTLVKPTQTLTLTCTFSGFSLTTSGVSVGWIRQPPGKALEWLALIHWDDDKRYSPSLRSRLTITRDTSKNQVVLTVTDMDPADTGTYYCASFIMTVYAEYFEDWGQGTLVTVSS
VL: EIVLTQSPATLSVSPGERATLSCRASQSVSSNLAWYQQKPGQAPRLLMYDVSTRATGIPARFSGSGSGTEFSLTISSLQSEDFAVYYCQQRGAWPLTFGGGTKVEIK
B7: Ab 8 (scFv, V domains shown)
VH: QVQLVQSGAEVKKPGSSVKVSCKASGGTFSSYAISWLRQAPGQGLEWMGWINPNSGGTNYAQKFQGRVTMTRDTSISTAYMELSRLRSDDTAVYYCARGSGGYYLGWGQGTLVTVSS
VL: QPGLTQPPSVSKGLRQTATLTCTGNSNNVGNQGAAWLQQHQGHPPKLLSYMNNNRPPGISERFSASRSGNTASLTITGLQPEDEADYYCSAWDSSLSRWVFGGGTKLSVL
B8: Ab 29 (scFv, V domains shown)
VH: QVQLQQSGPGLVKPSQTLSLTCAISGDSVSSYSDAWNWIRQSPSRGLEWLGRTYYRSKWYNDYAVSVKSRITINPDTSKNQFSLQLSSVTPEDTAVYYCAREIVATTPFRNYYYGMDVWGQGTTVTVSS
VL: NFMLTQPHSVSESPGNTVTISCTRTSGSIASNYVQWYQQRPGSSPTTVIFQDKLRPSGVPDRFSGSIDSSSNSASLTISGLKTEDEADYYCQSYDSSSLWVFGGGTKLTVL
B9: Ab 31 (scFv, V domains shown)
VH: QVQLVQSGAEVKKPGSSVKVSCKASGGTFSSYTISWVRQAPGQGLEWMGGIIPILGTPNYAQKFQDRVAITADKSTSTAYMELSSLRSEDTAVYYCAVGSGWYSGFDYWGQGTLVTVSS
VL: NFMLTQPHSVSESPGKTVTISCTGSSGSIASNYVQWYQQRPGSAPTTVIYEDSQRPSGVPDRFSGSIDSSSNSASLTISGLKTEDEADYYCQSFHNSNPVIFGGGTKLTVL
B10: Ab 13 (scFv, V domains shown)
VH: QVTLKESGPKLVKPTQTLTLTCTFSGFSLSTSGVGVGWIRQPPGKALEWLALIYWDDDKRYSPSLKSRLTIAKDTSKYQVVLTMTNMDPVDTATYYCARISGSGYFYPFDIWGQGTMVTVSA
VL: B9 VL with G24R, S53N, F94Y, H95D, N96S, P99L, V100W, I101V
B11: Ab 20 (scFv, V domains shown)
VH: QVQLVQSGGGSVKPGGSLRLSCAASGYRLSDYYMHWVRQAPGKGLEWVANIKQDGSEKYYVDSVKGRFTISRDNAKNSLYLQMNSLRAEDTAVYYCARVRGWSRGYFDYWGQGTLVTVSS
VL: B9 VL with S53N, T77L, F94Y, H95D, N96S, P99H, V100W, I101V
B12: Ab 34 (scFv, V domains shown)
VH: QVQLVQSGVEVKKPGESLKISCKGSGYSFTSYWIGWVRQMPGKGLEWMGIIYPGDSDTRYSPSFQGQVTISADKSISTAYLQWSSLKASDTAMYYCARTTYSYGSFDYWGQGTLVTVSS
VL: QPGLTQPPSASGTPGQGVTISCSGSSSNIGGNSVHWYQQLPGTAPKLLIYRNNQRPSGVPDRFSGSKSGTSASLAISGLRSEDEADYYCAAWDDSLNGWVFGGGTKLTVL
B13: Ab 21 (scFv, V domains shown)
VH: QVQLVQSGGGLVQPGGSLRLSCATSGFTFDDYAMHWVRQAPGKGLEWVSGISWNSGSIGYVDSVKGRFTISRDNRNNKVYLQMNNLRAEDTAVYYCARDWWGSIDHWGLGTLVTVSS
VL: QSALTQPRSVSGSPGQSVTISCTGTSSDVGGYDYVSWYQQHPGKAPKLIIYDVSKRPSGVPDRFSGSKSGNTASLTVSGLQAEDEADYYCSSYTSSSPVVFGGGTKLTVL
B14: Ab 17 (scFv, V domains shown)
VH: QVQLVQSGGGVVQPGRSLRLSCAASGFTFDDYAMHWVRQVPGKGLEWVSGIDWNSGVIGYADSVKGRFTISRDNVKNSLYLQMNSLRTEDSALYYCAKDIGPGGSGSYYAFDIWGQGTTVTVSS
VL: QSALTQPASVSGSPGQSITISCTGTSSDVGGSKYVSWYQQHPGKAPKVMIYDVTKRPSGVPDRFSGSKSGNTASLTISGLQAEDEADYYCAAWDDSLNGVVFGGGTKLTVL
B15: Ab 36 (scFv, V domains shown)
VH: QVQLQQSGPGLVKPSQTLSLTCAIFGDSVTSNSAAWNWIRQSPSRGLEWLGRTYYSSKWYNDYAVSVKSRVTINADTSKNQLSLQLNSVTPEDTAVYYCARGWLRLSFDPWGQGTLVTVSS
VL: NFMLTQPHSVSESPGKTVTISCTGSSGSIASNYVQWLQQRLGSAPTTVIYEDNQRPSGVPDRFSGSIDSSSNSASLTISGLKTEDEADYYCQSYDPNNHGVVFGGGTKLTVL

target: S1; assay: BLI

Binder | Kd
B1 | 0.121 nM
B2 | 2.18 nM
B3 | 0.907 nM
B4 | < 0.001 nM
B5 | 0.168 nM
B6 | 0.22 nM
B7 | 325 nM
B8 | < 0.001 nM
B9 | 2040 nM
B10 | 1.14 nM
B11 | 5.01 nM
B12 | 0.184 nM
B13 | 1.28 nM
B14 | 0.716 nM
B15 | 0.0306 nM

target: S1-biotin(ACRO); assay: BLI

Binder | Kd
B1 | 0.121 nM
B2 | 2.18 nM
B10 | 1.14 nM
B11 | 5.01 nM
B13 | 1.28 nM
B14 | 0.716 nM
